# Measured values as given in the MegaScale stability set (Tsuboyama et al. 2023).
# B1: EEHEE_rd4_0363 (parent)
# chain: VTVDIKGMEYHFDNPEEAKKFAERMAKELGGELKVENGTLKVE
# Variants of: B1
# Test: folding stability dG (cDNA display proteolysis); higher = more stable
# Settings: PBS, room temperature
row,Variant,folding stability dG
1,VTWDIKGMEYHFDNPEEAKKFAERMAKELGGELKVENGTLKVE [V3W],0.119 kcal/mol
2,VTYDIKGMEYHFDNPEEAKKFAERMAKELGGELKVENGTLKVE [V3Y],0.332 kcal/mol
3,VTVAIKGMEYHFDNPEEAKKFAERMAKELGGELKVENGTLKVE [D4A],2.45 kcal/mol
4,VTVCIKGMEYHFDNPEEAKKFAERMAKELGGELKVENGTLKVE [D4C],3.39 kcal/mol
5,VTVEIKGMEYHFDNPEEAKKFAERMAKELGGELKVENGTLKVE [D4E],2.56 kcal/mol
6,VTVFIKGMEYHFDNPEEAKKFAERMAKELGGELKVENGTLKVE [D4F],3.35 kcal/mol
7,VTVGIKGMEYHFDNPEEAKKFAERMAKELGGELKVENGTLKVE [D4G],1.39 kcal/mol
8,VTVHIKGMEYHFDNPEEAKKFAERMAKELGGELKVENGTLKVE [D4H],2.91 kcal/mol
9,VTVIIKGMEYHFDNPEEAKKFAERMAKELGGELKVENGTLKVE [D4I],3.73 kcal/mol
10,VTVKIKGMEYHFDNPEEAKKFAERMAKELGGELKVENGTLKVE [D4K],2.77 kcal/mol
11,VTVLIKGMEYHFDNPEEAKKFAERMAKELGGELKVENGTLKVE [D4L],3.5 kcal/mol
12,VTVMIKGMEYHFDNPEEAKKFAERMAKELGGELKVENGTLKVE [D4M],3.14 kcal/mol
13,VTVNIKGMEYHFDNPEEAKKFAERMAKELGGELKVENGTLKVE [D4N],2.67 kcal/mol
14,VTVPIKGMEYHFDNPEEAKKFAERMAKELGGELKVENGTLKVE [D4P],0.415 kcal/mol
15,VTVQIKGMEYHFDNPEEAKKFAERMAKELGGELKVENGTLKVE [D4Q],2.75 kcal/mol
16,VTVRIKGMEYHFDNPEEAKKFAERMAKELGGELKVENGTLKVE [D4R],2.75 kcal/mol
17,VTVSIKGMEYHFDNPEEAKKFAERMAKELGGELKVENGTLKVE [D4S],2.98 kcal/mol
18,VTVTIKGMEYHFDNPEEAKKFAERMAKELGGELKVENGTLKVE [D4T],2.85 kcal/mol
19,VTVVIKGMEYHFDNPEEAKKFAERMAKELGGELKVENGTLKVE [D4V],3.47 kcal/mol
20,VTVWIKGMEYHFDNPEEAKKFAERMAKELGGELKVENGTLKVE [D4W],3.59 kcal/mol

row,Variant,folding stability dG
1,VTVYIKGMEYHFDNPEEAKKFAERMAKELGGELKVENGTLKVE [D4Y],3.35 kcal/mol
2,VTVDAKGMEYHFDNPEEAKKFAERMAKELGGELKVENGTLKVE [I5A],0.423 kcal/mol
3,VTVDCKGMEYHFDNPEEAKKFAERMAKELGGELKVENGTLKVE [I5C],1.99 kcal/mol
4,VTVDDKGMEYHFDNPEEAKKFAERMAKELGGELKVENGTLKVE [I5D],0.025 kcal/mol
5,VTVDEKGMEYHFDNPEEAKKFAERMAKELGGELKVENGTLKVE [I5E],0.155 kcal/mol
6,VTVDFKGMEYHFDNPEEAKKFAERMAKELGGELKVENGTLKVE [I5F],1.44 kcal/mol
7,VTVDGKGMEYHFDNPEEAKKFAERMAKELGGELKVENGTLKVE [I5G],0.128 kcal/mol
8,VTVDHKGMEYHFDNPEEAKKFAERMAKELGGELKVENGTLKVE [I5H],0.78 kcal/mol
9,VTVDKKGMEYHFDNPEEAKKFAERMAKELGGELKVENGTLKVE [I5K],0.088 kcal/mol
10,VTVDLKGMEYHFDNPEEAKKFAERMAKELGGELKVENGTLKVE [I5L],1.23 kcal/mol
11,VTVDMKGMEYHFDNPEEAKKFAERMAKELGGELKVENGTLKVE [I5M],0.754 kcal/mol
12,VTVDPKGMEYHFDNPEEAKKFAERMAKELGGELKVENGTLKVE [I5P],-0.167 kcal/mol
13,VTVDQKGMEYHFDNPEEAKKFAERMAKELGGELKVENGTLKVE [I5Q],0.05 kcal/mol
14,VTVDRKGMEYHFDNPEEAKKFAERMAKELGGELKVENGTLKVE [I5R],0.036 kcal/mol
15,VTVDSKGMEYHFDNPEEAKKFAERMAKELGGELKVENGTLKVE [I5S],0.289 kcal/mol
16,VTVDTKGMEYHFDNPEEAKKFAERMAKELGGELKVENGTLKVE [I5T],0.201 kcal/mol
17,VTVDVKGMEYHFDNPEEAKKFAERMAKELGGELKVENGTLKVE [I5V],1.88 kcal/mol
18,VTVDWKGMEYHFDNPEEAKKFAERMAKELGGELKVENGTLKVE [I5W],1.49 kcal/mol
19,VTVDYKGMEYHFDNPEEAKKFAERMAKELGGELKVENGTLKVE [I5Y],1.52 kcal/mol
20,VTVDIAGMEYHFDNPEEAKKFAERMAKELGGELKVENGTLKVE [K6A],2.53 kcal/mol

row,Variant,folding stability dG
1,VTVDICGMEYHFDNPEEAKKFAERMAKELGGELKVENGTLKVE [K6C],3.13 kcal/mol
2,VTVDIDGMEYHFDNPEEAKKFAERMAKELGGELKVENGTLKVE [K6D],2.92 kcal/mol
3,VTVDIEGMEYHFDNPEEAKKFAERMAKELGGELKVENGTLKVE [K6E],2.26 kcal/mol
4,VTVDIFGMEYHFDNPEEAKKFAERMAKELGGELKVENGTLKVE [K6F],3.4 kcal/mol
5,VTVDIGGMEYHFDNPEEAKKFAERMAKELGGELKVENGTLKVE [K6G],2.68 kcal/mol
6,VTVDIHGMEYHFDNPEEAKKFAERMAKELGGELKVENGTLKVE [K6H],2.74 kcal/mol
7,VTVDIIGMEYHFDNPEEAKKFAERMAKELGGELKVENGTLKVE [K6I],1.81 kcal/mol
8,VTVDILGMEYHFDNPEEAKKFAERMAKELGGELKVENGTLKVE [K6L],2.96 kcal/mol
9,VTVDIMGMEYHFDNPEEAKKFAERMAKELGGELKVENGTLKVE [K6M],3.32 kcal/mol
10,VTVDINGMEYHFDNPEEAKKFAERMAKELGGELKVENGTLKVE [K6N],2.84 kcal/mol
11,VTVDIPGMEYHFDNPEEAKKFAERMAKELGGELKVENGTLKVE [K6P],0.366 kcal/mol
12,VTVDIQGMEYHFDNPEEAKKFAERMAKELGGELKVENGTLKVE [K6Q],2.34 kcal/mol
13,VTVDIRGMEYHFDNPEEAKKFAERMAKELGGELKVENGTLKVE [K6R],2.17 kcal/mol
14,VTVDISGMEYHFDNPEEAKKFAERMAKELGGELKVENGTLKVE [K6S],2.31 kcal/mol
15,VTVDITGMEYHFDNPEEAKKFAERMAKELGGELKVENGTLKVE [K6T],1.5 kcal/mol
16,VTVDIVGMEYHFDNPEEAKKFAERMAKELGGELKVENGTLKVE [K6V],1.81 kcal/mol
17,VTVDIWGMEYHFDNPEEAKKFAERMAKELGGELKVENGTLKVE [K6W],2.62 kcal/mol
18,VTVDIYGMEYHFDNPEEAKKFAERMAKELGGELKVENGTLKVE [K6Y],2.87 kcal/mol
19,VTVDIKAMEYHFDNPEEAKKFAERMAKELGGELKVENGTLKVE [G7A],0.278 kcal/mol
